Earlier results on 1 substance are cited in patent US4259319A, “Antibiotic auromomycin, and process for production thereof” (Kanegafuchi Chemical Industry Company, Limited, priority 1977, dated 1981).

The conditions of data set [1]: comparison substance.
The subject of a further data set is Gram-positive bacteria. The settings on record: comparison substance.

Take neocarcinostatin: in data set [1], the isoelectric point is reported as 3.5 pH. The Antibacterial activity entry with Gram-positive bacteria is “inhibiting only Grampositive bacteria”.
